Measurements taken from patent US20160355590A1.

Biological target: HLA-DR on Raji cells, the Lym-1 antigen (HLA-Dr10) (human)
Test: cell-based or functional assay

Lym-1 CAR (on primary human T-cells)
lysis of target Raji cells (LDH cytotoxicity assay): 22%
